Test results published in doi:10.1101/2025.04.22.649955.
Values belong to the substance of their own block, whether it stands above or below them.

Tests used:
[1] = molecular target: SynGAP[PSD95] condensates (mCherry-SynGAP with PSD95-mGFP) (human | rat) (UniProt P31016)
Sequence of UniProt P31016 (P31016 whole entry, looked up): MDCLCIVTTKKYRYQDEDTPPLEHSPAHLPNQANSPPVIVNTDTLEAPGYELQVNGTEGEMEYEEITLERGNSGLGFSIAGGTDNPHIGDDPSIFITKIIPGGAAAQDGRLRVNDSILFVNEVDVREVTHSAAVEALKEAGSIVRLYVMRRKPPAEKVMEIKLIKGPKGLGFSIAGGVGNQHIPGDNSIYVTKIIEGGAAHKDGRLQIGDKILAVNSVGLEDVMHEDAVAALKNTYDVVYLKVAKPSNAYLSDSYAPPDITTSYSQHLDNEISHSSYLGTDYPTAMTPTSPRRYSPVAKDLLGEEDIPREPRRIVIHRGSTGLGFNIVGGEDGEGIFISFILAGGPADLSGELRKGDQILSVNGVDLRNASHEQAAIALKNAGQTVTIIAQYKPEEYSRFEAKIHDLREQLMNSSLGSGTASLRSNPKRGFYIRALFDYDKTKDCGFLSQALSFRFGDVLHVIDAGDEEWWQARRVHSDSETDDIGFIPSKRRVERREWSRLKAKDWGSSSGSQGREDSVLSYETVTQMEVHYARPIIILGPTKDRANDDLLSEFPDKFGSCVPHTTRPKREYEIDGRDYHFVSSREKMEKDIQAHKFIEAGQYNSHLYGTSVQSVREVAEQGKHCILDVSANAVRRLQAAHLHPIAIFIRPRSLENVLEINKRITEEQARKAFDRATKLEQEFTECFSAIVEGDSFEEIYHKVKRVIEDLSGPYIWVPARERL

percent of molecules as dimers (GluA1(ΔNTD)-TARP2): 45%
percent of molecules as monomers (GluA1(ΔNTD)-TARP2): 41%
percent of molecules as tetramers (GluA1(ΔNTD)-TARP2): 14%
Substance: GluA1(ΔNTD)-TARP2

percent of molecules as dimers (GluA1-TARP2): 39%
percent of molecules as monomers (GluA1-TARP2): 19%
percent of molecules as tetramers (GluA1-TARP2): 2%
percent of molecules as trimers (GluA1-TARP2): 18%
Substance: GluA1-TARP2

fold of the fraction of the τ2 dwell-lifetime component against mNlg1 [1]: 2.5 fold
Substance: Halo7-tagged wild-type Neuroligin1 (from UniProt Q99K10 46-843) (receptor)
